The Kd is the concentration at which binding is half-saturated. A high value points to weaker binding.

Read-outs that look alike come from different tables or passages of the source.

Experiment [1] deals with T1, Activin B (UniProt P09529 293-407).
T1 sequence (looked up): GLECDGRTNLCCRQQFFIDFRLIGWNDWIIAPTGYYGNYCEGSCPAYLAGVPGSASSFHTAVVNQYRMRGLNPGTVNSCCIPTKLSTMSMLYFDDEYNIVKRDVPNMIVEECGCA
As to the kind of experiment: SPR (Biacore T200), FST-Fab captured on anti-F(ab')2, Activin B as analyte, 1:1 model. On the procedure: (§1) The binding kinetics of the fusion proteins to various targets (see below) were determined by surface plasmon resonance using a Biacore T200 (Cytiva). For each type of assay, kinetic parameters were determined using a 1:1 binding model using Biacore T200 Evaluation software (version 3.0).
(§2) For the assessment of binding to Activin A and Activin B (R&D Systems), a goat anti-human F(ab′)₂ fragment specific antibody (Jackson ImmunoResearch) was first immobilised on a CM5 Sensor Chip via amine coupling chemistry to a level of approximately 5000RU. Using a standard multi-cycle kinetic approach, each analysis cycle consisted of capture of FST-Fab to the anti-F(ab′)₂ surface followed by injection of analyte and finally surface regeneration using 60s injections of 50 mM HCl, and 5 mM NaOH. […] The binding response of a parallel blank surface was subtracted, and buffer blank injections were included to subtract instrument noise and drift.

Experiment [2] addresses T2, Activin A (UniProt P08476 311-426).
T2 sequence (looked up): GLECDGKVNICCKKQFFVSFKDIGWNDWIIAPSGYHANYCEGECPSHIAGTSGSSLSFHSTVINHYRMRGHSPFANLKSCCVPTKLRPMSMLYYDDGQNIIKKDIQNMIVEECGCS
As to the kind of experiment: SPR (Biacore T200), FST-Fab captured on anti-F(ab')2, Activin A as analyte, 1:1 model. On the procedure:
as §1, §2

Experiment [3] has as its target GDF8 (myostatin) (UniProt O14793). Put plainly: SPR (Biacore T200), GDF8 amine-coupled, FST-Fab as analyte, single-cycle kinetics. In general terms: Surface plasmon resonance follows binding to a sensor surface in real time, without labels.
Experiment [4] deals with T3, GDF11 (UniProt O95390 299-407). As to the kind of experiment: SPR (Biacore T200), GDF11 amine-coupled, FST-Fab as analyte, single-cycle kinetics. As for the experimental part:
as §1
(§3) For the assessment of binding to GDF8 and GDF11 (R&D Systems), each one of GDF8 and GDF11 was immobilised by amine coupling chemistry to the surface of a CM5 sensorchip to achieve an immobilisation level of approximately 250RU. For both GDF8 and GDF11, analysis was conducted using a single-cycle kinetics approach with sequential 180s injections of FST-Fab at increasing concentrations (0.8, 4, 20, 100 and 500 nM) in HBS-EP+ running buffer (Cytiva) at 25° C. at a flow rate of 30 μl/min, followed by monitoring the dissociation for 1800s. The binding response of a parallel blank surface was subtracted, and a series of buffer blank injections were conducted to subtract instrument noise and drift.

The target in experiment [5] is T1, Activin B. As to the kind of experiment: cell-based or functional assay.
The target of experiment [6] is T4, GDF8 (myostatin) (UniProt O14793 267-375). Put plainly: cell-based or functional assay.
Experiment [7] has as its target T3, GDF11. As to the kind of experiment: cell-based or functional assay.
The target in experiment [8] is T2, Activin A. As to the kind of experiment: cell-based or functional assay.
The target of experiment [9] is T1, Activin B. Put plainly: cell-based or functional assay. This is another data set of the same source.
Experiment [10] addresses T4, GDF8 (myostatin). Put plainly: cell-based or functional assay. The source holds these as a separate data set.
Experiment [11] concerns the target T3, GDF11. Put plainly: cell-based or functional assay. This is another data set of the same source.
The next experiment addresses T5, Human Albumin (human, UniProt P02768 25-609).
T5 construct: Analyte in the Biacore albumin assay; also called human serum albumin; HSA
As to the kind of experiment: SPR (Biacore T200), fusion protein captured on anti-F(ab')2, albumin as analyte, 1:1 model. As for the experimental part:
as §1
For the assessment of binding to albumin: A goat anti-human F(ab′)2 fragment specific antibody (Jackson ImmunoResearch) was first immobilised on a CM5 Sensor Chip via amine coupling chemistry to a level of approximately 5000RU. Using a standard multi-cycle kinetic approach, each analysis cycle consisted of capture of the fusion protein to be tested to the anti-F(ab′)2 surface followed by injection of albumin and finally surface regeneration using 60s injections of 50 mM HCl, and 5 mM NaOH. […] The binding response of a parallel blank surface was subtracted and buffer blank injections were included to subtract instrument noise and drift.

The target in experiment [12] is T1, Activin B. As to the kind of experiment: cell-based or functional assay. This is another data set of the same source.
Experiment [13] deals with T4, GDF8 (myostatin). As to the kind of experiment: cell-based or functional assay. The source holds these as a separate data set.
Experiment [14] has as its target T3, GDF11. Put plainly: cell-based or functional assay. The source holds these as a separate data set.
The target of experiment [15] is T2, Activin A. Put plainly: cell-based or functional assay. The source holds these as a separate data set.
The target of experiment [16] is T4, GDF8 (myostatin). As to the kind of experiment: SPR (Biacore T200), GDF8 amine-coupled, FST-Fab as analyte, single-cycle kinetics. As for the experimental part: as §1, §3
Experiment [17] has as its target T1, Activin B. As to the kind of experiment: cell-based or functional assay. This is another data set of the same source.
Experiment [18] concerns the target T4, GDF8 (myostatin). As to the kind of experiment: cell-based or functional assay. This is another data set of the same source.
The target of experiment [19] is T3, GDF11. As to the kind of experiment: cell-based or functional assay. The source holds these as a separate data set.
Experiment [20] concerns the target T2, Activin A. As to the kind of experiment: cell-based or functional assay. The source holds these as a separate data set.
Experiment [21] addresses T2, Activin A. As to the kind of experiment: cell-based or functional assay. This is another data set of the same source.

In the case of FST288-Fab, the figures for the equilibrium dissociation constant (Kd) with Activin B [1], in the experiment with Activin A [2] and with GDF8 (myostatin) [3] were 71 pM, 32 pM and 240 pM, respectively.

As for FST315-Fab, the Kd stood at 69 pM with Activin B [1], 200 pM with Activin A [2] and 150 pM with GDF8 (myostatin) [3].

B1: FST315HBM-Fab (other)
heavy: GNCWLRQAKNGRCQVLYKTELSKEECCSTGRLSTSWTEEDVNDNTLFKWMIFNGGAPNCIPCKETCENVDCGPGKACRMNAANKPRCVCAPDCSNITWKGPVCGLDGKTYRNECALLKARCKEQPELEVQYQGRCKKTCRDVFCPGSSTCVVDQTNNAYCVTCNRICPEPASSEQYLCGNDGVTYSSACHLRKATCLLGRSIGLAYEGKCIKAKSCEDIQCTGGKKCLWDFKVGRGRCSLCDELCPDSKSDEPVCASDNATYASECAMKEAACSSGVLLEVKHSGSCNSISEDTEEEEEDEDQDYSFPISSILEWSGGGGSEVQLLESGGGLVQPGGSLRLSCAVSGIDLSNYAINWVRQAPGKGLEWIGIIWASGTTFYATWAKGRFTISRDNSKNTVYLQMNSLRAEDTAVYYCARTVPGYSTAPYFDLWGQGTLVTVSSASTKGPSVFPLAPSSKSTSGGTAALGCLVKDYFPEPVTVSWNSGALTSGVHTFPAVLQSSGLYSLSSVVTVPSSSLGTQTYICNVNHKPSNTKVDKKVEPKSC
light: DIQMTQSPSSVSASVGDRVTITCQSSPSVWSNFLSWYQQKPGKAPKLLIYEASKLTSGVPSRFSGSGSGTDFTLTISSLQPEDFATYYCGGGYSSISDTTFGGGTKVEIKRTVAAPSVFIFPPSDEQLKSGTASVVCLLNNFYPREAKVQWKVDNALQSGNSQESVTEQDSKDSTYSLSSTLTLSKADYEKHKVYACEVTHQGLSSPVTKSFNRGEC
notes: paired with the Fab light chain; also called FST-Fab1; FST-Fab 1
As for B1, the equilibrium dissociation constant (Kd) amounted to 1250 pM with GDF11 [4]; 11 pM in the experiment with Activin B [1]; 11 pM in the experiment with Activin A [2]; 2600 pM with Human Albumin; 2300 pM in the experiment with GDF8 (myostatin) [16]. Moreover, the “IC50 (geomean), Smad2/3 reporter gene assay, HEK-Blue TGFb cells” value (“IC50 (geomean)” below) with Activin B [5] came to 460 pM; in the experiment with GDF8 (myostatin) [6], 1400 pM; with GDF11 [7], 4240 pM; in the experiment with Activin A [8] it was 100 pM. Further, the “IC50 (read off the curve)” value was about 600 pM with Activin B [9], about 1000 pM with GDF8 (myostatin) [10] and about 2000 pM with GDF11 [11]. Further, the “fold potency against the parent FST315WT, Smad2/3 reporter gene assay” value in the experiment with Activin B [12] was found to be 3 fold; in the experiment with GDF8 (myostatin) [13] it was 2 fold; in the experiment with GDF11 [14], 2 fold; in the experiment with Activin A [15], 3 fold.

B2: FST288WT (other)
chain: GNCWLRQAKNGRCQVLYKTELSKEECCSTGRLSTSWTEEDVNDNTLFKWMIFNGGAPNCIPCKETCENVDCGPGKKCRMNKKNKPRCVCAPDCSNITWKGPVCGLDGKTYRNECALLKARCKEQPELEVQYQGRCKKTCRDVFCPGSSTCVVDQTNNAYCVTCNRICPEPASSEQYLCGNDGVTYSSACHLRKATCLLGRSIGLAYEGKCIKAKSCEDIQCTGGKKCLWDFKVGRGRCSLCDELCPDSKSDEPVCASDNATYASECAMKEAACSSGVLLEVKHSGSCN
As for B2, the “IC50 (read off the curve)” value with Activin B [17] was about 500 pM; in the experiment with GDF8 (myostatin) [18], about 2000 pM; with GDF11 [19] it was about 2000 pM; with Activin A [20], about 400 pM. Moreover, the “IC50 (geomean)” value with Activin B [5] is 450 pM; with GDF8 (myostatin) [6], 730 pM; with GDF11 [7], 770 pM; with Activin A [8], 140 pM.

B3: FST315WT (other)
chain: GNCWLRQAKNGRCQVLYKTELSKEECCSTGRLSTSWTEEDVNDNTLFKWMIFNGGAPNCIPCKETCENVDCGPGKKCRMNKKNKPRCVCAPDCSNITWKGPVCGLDGKTYRNECALLKARCKEQPELEVQYQGRCKKTCRDVFCPGSSTCVVDQTNNAYCVTCNRICPEPASSEQYLCGNDGVTYSSACHLRKATCLLGRSIGLAYEGKCIKAKSCEDIQCTGGKKCLWDFKVGRGRCSLCDELCPDSKSDEPVCASDNATYASECAMKEAACSSGVLLEVKHSGSCNSISEDTEEEEEDEDQDYSFPISSILEW
Regarding B3, the “IC50 (geomean)” value in the experiment with Activin B [5] was 1570 pM; with GDF8 (myostatin) [6], 3080 pM; with GDF11 [7], 8370 pM; with Activin A [8], 310 pM. The “IC50 (read off the curve)” value with Activin B [9] was about 2000 pM; with GDF8 (myostatin) [10], about 3000 pM; in the experiment with GDF11 [11], about 6000 pM; with Activin A [21] it was about 400 pM.

The values above are taken from patent US20260049126A1 (UCB, published 2026).
